Experimental data: patent US20050250935A1 (priority 2004, published 2005)

In the case of “human follicle—stimulating hormone [FSH]”, the “estimated FSH activity, in vivo biological assay in rat” value was 6578 IU per mg protein, the “FSH activity in the lower sample after centrifugation, in vivo test” value (rat) was “undetectable” and the “FSH activity in the upper sample after centrifugation, in vivo test” value (rat) was 97%.
